Test results from article PMC10565793, “Biochemical and X-ray analyses of the players involved in the faRel2/aTfaRel2 toxin–antitoxin operon” (Acta Crystallographica. Section F, Structural Biology …, 2023).

Target: T1, FaRel2^Y128F (catalytically impaired toxin FaRel2 from Coprobacillus sp. D7) (Coprobacillus sp. D7, Y128F (stands in the printed letters))
T1 construct: The His6-SUMO tag was removed with UlpI, and complete removal was confirmed by anti-His Western blot; also called tagless FaRel2^Y128F; His6-SUMO-FaRel2^Y128F (before cleavage); source: E. coli BL21(DE3), purified (Ni-NTA, SEC, UlpI cleavage, TALON, SEC); not shown: His6, N-terminal, cleaved; SUMO, N-terminal, cleaved
Test: SEC; analytical SEC on a Superdex 75 Increase column in 25 mM HEPES, 300 mM NaCl, 1 mM TCEP, 2 mM MgCl2; proteins run alone, or FaRel2^Y128F and ATfaRel2 mixed in a 1:1.2 molar ratio; molecular weights estimated from elution volume
Details: both partners purified

B1: 6×His-TEV-ATfaRel2 (antitoxin ATfaRel2 from Coprobacillus sp. D7) (natural protein)
chain: AMCYIIAKRFKKSGCVALKAKRGKELADFATDLQKKLGYDIQIVAITRPTAYGEYEPYKFVNSFEEFSIEASRL
notes: The tag is not reported as removed; also called His6-TEV-ATfaRel2; source: E. coli BL21 (DE3), purified (Ni-NTA, SEC)
  stoichiometry N: 1 ATfaRel2 per FaRel2^Y128F (2:2 heterotetramer)
